Experimental data taken from the nanobody polyreactivity screen of Harvey et al. (2022).

Assay: yeast display, Sf9 membrane polyspecificity reagent, FACS + sequencing; frameworks hold sequencing errors
How it was run: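 Using colony PCR, genes from sorted yeast display clones were amplified, then sequenced on MiSeq at 2 × 250 and filtered by CDR length. The clones had been stained with 10% biotinylated, detergent-solubilized Sf9 membrane reagent for 1 hour at 4 °C and sorted by FACS into low and high (top ~1%) gates on anti-HA and streptavidin fluorescence. Polyreactivity labels come from the gate of origin.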

Sequence | polyreactivity (PSR sort gate)
QVQLVESGGGLVQAGGSLRLSCAASGIIFKGYAMGWYRQAPGKERELVAGITRNGGGTYYADSVKGRFTISRDNAKNTVYLQMNSLKPEDTAVYYCAARWDYSYRYRLYYWGQGTQVTVSS | high polyreactivity
QVQLVESGGGLVQAGGSLRLSCAASGRTFTYYAMGWYRQAPGKERELVAAISSTGGSTYYADSVKGRFTISRDNAKNTVTLQMNSLKPEDTAVYYCNVAFDDFDYWGQGTQVTVSS | low polyreactivity
QVQLVESGGGLVQAGGSLRLSCAASGFTFRRYAMGRYRQAPGKERELVAAISRSTGSTYYADSVKGRFSLSRDNAKNSVYLQMNSLKPEDTAVFYCNVAGSARVNTLVLSYEYWGQGSQVTVSS | high polyreactivity
QVHLVESGGALVQAGGSLRLSCAASGFTFHTYASRLYRQAPGKEREFVAAISYSGGNTYYADSVKGHFTISRDNAKKTVYLHMNSLKPEDTAVYYCAAQYYYRYYWGPGTQVTVSS | high polyreactivity
QVQLVESGGGLVQAGGRLRLSCAASGSTIGKYVMGLYRQAPGKERELVAAITNIAGSTYYADSVKGRFTISRDTAKNTVYVQLNSLNPEDTAVYYCAADIEEYYGFDDYDYSYNDYDYWGQGTQVTVSS | high polyreactivity
QVQLVESGGGLVQAGGSLRLSCAASGRIFYDYAMGWYRQAPGKERELVAAISGSGGSTYYADSVKGRFTISRDKAKNTVYLQMNSLQPEDTEVYYCNRYTTRYYPGGDYWGHGTQVTVSS | high polyreactivity
QVQLVESGGGLVQAGGSLRLSCAASGRIFYTNAMGWYRQAPGKERELVAAIKWNGGRTYYADSVKGRFTISRDNAKNTVYLQMNSLKPEDTAVYYCAAGAPVDPWYSGLVVLDGMDYWGQGTQVTVSS | low polyreactivity
QVQLVESGGGLVQAGGSLRLSCAASGLIFEYYAMGWYRQAPGKERELVAVINWSGASTYYADSVKGRFTISRDNAKNTVYLQMNSLKPEDTAVYYCAAGVLITGLRFDYWGQGTQVTVSS | low polyreactivity
QVQLVESGGGLVQAGGSLRLSCAASGSTFAGYVMGWSRQAPGKERELVAAISRSGGSTYYADSVKGRFTISRDNAKNTVYLQMNSLKPEDTAVYYCNARYNTQRYRFLVQGDYWGQGTQVTVSS | high polyreactivity
QVQLVESGGGLVQAGGSLRLSCAASGRTIAINAMGWYRQAPGKEREFVAAITSRSSRTYYADSVKGRFTISRDNAKNTVYLQMNSLKPEDTAVYYCARGSELGYYAWVYYWGQGTQVTVSS | high polyreactivity
QVQLVESGGGLVQAGGSLRLSCAASGITFIAYTMGWYRQAPGKERELVAGISRNGGRTYYADSVKGRFTISRDNAKNTVYLQMNSLKPEDTAVYYCNKVVSTYSSIKYDYWGQGTQVTVSS | high polyreactivity
QVQLVESGGGLVQAGGSLRLSCAASGFIFTTYAMGWYRQAPGKERELVAAISTSGGRTYYADSVKGRFTISRDNAKNTVYLQMNSLKPEDTAVYYCNTYSYYSYDWGQGTQVTVSS | high polyreactivity
QVQLVESGGGLVQAGGSLRLSCAASGITFKSYAMGWYRKAPGKERELVAAITRSGGSTYYADSVKGRLTISRDNAKNTVYLQMNSLKPEDTAVYYCAARYFIAYPQYTYDYWGQGTQVTVSS | high polyreactivity
QVQLVESGGGLVQAGGSLRLSCAASGSIFYRYTMGWYRQARGKERELVAAISSDGGSTYYADSVKGRFTISRDNAKKTVYLQMNSLKPEDTAVYYCAAGQDGHSDWGQGTQVTVSS | low polyreactivity
QVQLVESGGGLVQAGRSLRLSCAASGRIFSRYTMGWYRQAPGKERELVAANSYRGGSTYYADSVKGRFTISRDNAKNTVYLQMNSLKPEDTEVYYCAARVQAIYRYDYCGQGTQVTVSS | high polyreactivity
QVQLVESGGGLVQAGGSLRLSCPASGRIFYIYTMGWYRQAPGKERELVASITYNGGSTYYADSVKGRFTISRDNAKNTVYLQMNSLKPEDTAVYYCNANSRSPTYRYRSWPYNYWGQGTQVTVSS | high polyreactivity
QVQLVESGGGLVQAGGSLRLICAASGRSFIGNAMGWYSQAPGKDREFDAAISRRGGSTYYADSVKGRFTISRDNEKNTVYLQMNSLKPEDTAVYYCAAGQTTTGILTYYYWGQGTQVTGSS | high polyreactivity
QVQLVESGGGLGQAGGSLRLSCAASGLTFLDYAMGWSRQAPGKERELVAAITSGGSTNYADSVKGRFTISRDKAKNTVYLQMNSLKPEDTAVYYFATDLEVSAYDYWGQGTQVTVSS | low polyreactivity
QVQLVESGGGLVQAGGILRLSCAASGRIFTRYSLGWYRPAPGKESELVAAISSGGSTYYADSVKGRFTISRDNAKNTVYLQMNSLKPEDTAVYYSAAKTRPQRTFSTRQQMNYWGQGTQVTVSS | high polyreactivity
QVQLVESGGGLVQAGGSLRLSCAASGTLSSYAMGWYRQAPGKERELVAAISLSGGSTYYADSVKGRFTISRDNAKNTVYLQMNSLKPEDTAVYYCAKRPKRTYYPHIGYDYWGQGTQVTVSS | low polyreactivity
QVQLVESGGGLVQAGGSLRLSCAASGIIFSIYAMGWYRQAPGKERELVAAISGRGGRTYYADSVKGRFTISRDNAKNTVYLQMNSLKPVDTAVYYCNAEYHDLYDYWGQGTQVTVSS | low polyreactivity
QVQVVESGGGLVQPGCSLRLSCAASGNIFVYNDMGWYRQAPGKERELVAAIDSGGSTYYADSVKGRFTISRDNAKNNVYLKMNSLKQEDTAVYYCAADYYCTYRTIYYYWGQGTQVTVSS | low polyreactivity

Sequence | polyreactivity (PSR sort gate)
QVQQQESGGGLVQAGGSLRLSCAASGTILYSLGMGWYRQAPGKRREFVASITWGTTTNYAESVKGRFTISRDNAKNTVYPQMNSLKPEDTAVYYCNKSSTGWTSTYDYWGQGTQVTVSS | low polyreactivity
QVQLVESGGGLVQAGGSLRLSCAASGSTFVPYTMGWYRQAPGKERELVAAMSGSGGTDYADSVKGRFTISRDNAKNTVYLQMNSLKPEDTAVYYCATDGLDFWFIYDYWGQGTQVTVSS | low polyreactivity
QVHLVESGGGLVQAGGSLRLSSAASGITFDDYAMGWYRQAPGKERELVAAISVSGGDTYYADSVKGRFTISRDNAKNTVYLQMNSLKPEVTAVYYCAAEVVSPRWYDYWGQGTQLTVSS | low polyreactivity
QVQLVESGGGLVQAGGSLRLSCAASGFIFATNTMGWYRQAPGKERELVAASSTYYADSVKGRFTISRDNAKNTVYLQMNSLKPEDTAVYYCNADRDSYIGFDLSESDYWGQGTQVTVSS | low polyreactivity
QVQLVESGGGLVQAGGSLRLSCAASGSICWIYAMGWYRQAPGKERELVAAINVGGGSTYYADSVKGRFTISRDNAKNTVYLQMNSLKPEDTAVYYCAKGYQSPYKSQGYEYDYWGQGTQVTVSS | low polyreactivity
QVQLVESGGGLVQAGGSLRLSCAASGIIFTKYVMGWYRQAPGKERELVAAINTDGGSTRYADSVKGRFTISRDNAKNTVYLQMNSLIPEDTAVYYCNTVWFYGAKYDYWGQGTQVTVSS | high polyreactivity
QVQLVESGGGLVQAGGSLRLSFAASGLIFSYYAMVWYRQAPGKERELVAAISSSGGSTYYADSVKGRFTISRDYAKNTVYLQMNSLKPEDTAVYYCARKLTRRFYQYDYWGQGTQVTVSS | high polyreactivity
QVQLVESGGGLVQAGGSLRLSCAASGRIFSPYAMGWYRQAPGKERELVAAINYSGSRTYYADSVTGRFTISRDNAKNTVYLQMNSLKPEDTAVYYCARPWAPSSRGNGYWGLGTQVTVSS | high polyreactivity
QVQLVESGGGLVQAGGSLRLSCAASGITFNLYAMGWYRQAPGKERELVAGITGGGSTYYADSVKGRFTISRDNAKNTVYLQMNSLTPEDTAVYYSTARRLGARYRGYYWGQGTQVTVSS | high polyreactivity
QVQLVESGGGLVQAGGSLRLSCAASGSIFGYAMGWYRQAPGKERELVAAISFSGVSTYYADSVKGRFTISRDNAKNTVYLQMNSLKPDDTAVYYCATDRFYYRTGYDPYYYWGQGTQVTVSS | low polyreactivity
QVQLQESGGGLVQAGGSLRLSCAASGTIFRFRYMGWHRQAPGKERELVAGINGGTTTYYADSVIGRFTISRVNAKNTVYLQMKSLKPDDTAVYNCAAGASRLTYYDYWGQGTQVTVSS | low polyreactivity
QVQLVESGGGLVQAGGSLRLSCAASGFTFWQYAMGWYRQAPGKERELVAAISGSGSSTYYADSVKGRFTISRDNAKNTVYFQMNSLKPEDTAVYYCATAISRYGRYYYWGQGTQVTVSS | high polyreactivity
QVQLVESGGGLVQAGGSLRLSCAASGSTLGRNAMGWDRQAPGKEREFVAAITYSTGSTYYADSVKGRFTISRDNAKNTVYVQMNSLKPEDTAVYYCAKGRLTRGYVTFEYWGQGTQVTGSS | high polyreactivity
QVQLVESGGGLVQAGGSLRLSCAASGSIFYVYAMGWYRQAPGKERELVADITTRDGDTYYADSVKRRFTISRDNAKNTVYLQMNSLKPEDTAVYYCAADLNAYPLRAYDYWGQGTQVTVSS | low polyreactivity
QVQLVDSGRGLVQAGGSLRLSCAASGSIFDNYAMGSYRQAPGNERELVAAISGRGGSTYYADSVKGRFTISRDNAKNTVYLQMNSLKPEDTAVSYCNALVHQTYYDYDDWGHGTQVTVSS | high polyreactivity
QVQLVESGGGLVQAGGSLRLSCAAYGFTFIYYAMGRYRQAPGKERELVAAISRRGGSTYYADSVKGRFTISRDNAKNTVYLQMNSLKPEDTAVYYCAAYTLNTRYDYWGQGTQVTVSS | high polyreactivity
QVQHVESGGGLVQAGGSLRLSCAASGRIFYLNAMGWYREAPGKERELVAAINTSGDSTYYADSVKGRFTISRDNAKNTVYLQMNSLKPVDTAVFYCAAYVIGPDQFIYDYWGQGTQVTVSS | low polyreactivity
QVQLVESGGGLVQAGGSLRLSCAASGSTFSRYAMGWYRQAPGKERELVAAISSSGGSTYYADSVKGRFTISRDNAKNTVYLQMNSLKPEDTAVYYCAVAVNGVSRIKYYYWGQGTQVTVSS | high polyreactivity
QVQLVESGGGLVQAGGSLRLSCAASGSSSRRMIMGRYRQAPGKERELVAAISGSGGSTYYADSVKGRFTISRDNAKNTVYLQMNSLKPEDTAVYYCAAVLQSCYGYEYWGQGTQVTVSS | high polyreactivity
QVQLVESGGGLVQAGGSLRLSCAASGRIFARNVMGWYRQAPGKERELVAGISRSGGTTYYADSVKGRFTISRDNAKNTVYLQMNSLKPEDTAVYYCAAYYFLENDYWGPGTQVTVSS | high polyreactivity
QVQLVESGGGLVQAGGSLRLSCAASGRTFYRYAMGWYRQAPGKESELVAAISSSGGSTYYADSVKGRFTISRDNAKNTVYFQMNSLKPEDTAVYDCADQYFLFTTPYRYAPRMGYWGQGTQVTLSS | high polyreactivity
